Measurements taken from PMC7804310 (2021).

Assays:
Assay in all cases: SPR
[1] = molecular target: recombinant cynomolgus monkey MTf(20-709) extracellular domain (cynomolgus monkey)
[2] = molecular target: T1, recombinant human Melanotransferrin MTf(20-709) extracellular domain (human, UniProt P08582-1 20-709, N-glycans at Asn 38, Asn 135 and Asn 515 (high mannose N-glycans favoured by kifunensine for crystallization))
T1 chain: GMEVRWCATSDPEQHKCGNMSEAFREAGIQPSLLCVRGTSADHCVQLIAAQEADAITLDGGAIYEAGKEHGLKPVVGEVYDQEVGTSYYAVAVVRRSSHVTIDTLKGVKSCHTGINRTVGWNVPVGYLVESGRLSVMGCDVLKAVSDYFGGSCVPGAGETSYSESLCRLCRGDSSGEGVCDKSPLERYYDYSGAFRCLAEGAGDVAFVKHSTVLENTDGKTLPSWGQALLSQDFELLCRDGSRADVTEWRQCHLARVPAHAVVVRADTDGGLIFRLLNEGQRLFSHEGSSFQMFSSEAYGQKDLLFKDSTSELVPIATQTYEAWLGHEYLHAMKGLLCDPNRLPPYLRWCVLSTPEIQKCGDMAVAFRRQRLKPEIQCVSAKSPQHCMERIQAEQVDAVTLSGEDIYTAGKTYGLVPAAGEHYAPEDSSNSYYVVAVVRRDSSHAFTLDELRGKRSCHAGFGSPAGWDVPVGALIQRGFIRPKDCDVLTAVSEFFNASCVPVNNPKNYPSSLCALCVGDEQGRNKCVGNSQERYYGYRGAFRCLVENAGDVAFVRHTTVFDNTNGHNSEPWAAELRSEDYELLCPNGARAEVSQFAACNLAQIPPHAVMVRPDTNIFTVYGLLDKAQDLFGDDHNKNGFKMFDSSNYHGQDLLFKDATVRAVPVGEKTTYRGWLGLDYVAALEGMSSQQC

[3] = molecular target: T1, recombinant human Melanotransferrin …

B1: SC57.32 Fab fragment (Fab, V domains shown)
VH: QVQLQQSGAELMKPGASVKISCKATGYTFSNYRIEWIKQRPGHGLEWIGEILPRGGNTNYNEKFKGKATFTADTSSNTAYMQLTSLTSEDSAVYYCARDDGYYGRFAYWGQGTLVTVSA
VL: DIQMTQTTSSLSASLGDRVTISCRASQDISNYLNWYQQKPDGTVKLLIFYTSRLHSGVPSRFSGSGSGTDYSLTISNLEQEDFATYFCQQGNTLPPTFGGGTKLEIK
Kd [1]: 1.1 nM
koff [1]: 0.00047 s⁻¹
koff [2]: 0.00048 s⁻¹
Kd [3]: 1 nM
